From publication PMC8126837 (Proceedings of the National Academy of Sciences of the …, 2021)

Molecular target: T1, SARS-CoV receptor-binding domain (RBD) (SARS-CoV, UniProt P59594)
T1 construct: source: recombinant, purified
Assay: ELISA
Conditions: both partners purified

B1: WNb 21 (VHH)
VHH: QVQLQESGGGLVQAGGSLTLTCAASERTFGRYVLAWFRQAPGKERELVARISRSTGSTFHADFVLGRFTISRDNAKNTVYLTMNNLKPEDTAVYYCAADKDGGLEYDYWGQGTQVTVSS
notes: source: expressed and purified
binding result: binds

B2: WNb 23 (VHH)
VHH: QVQLQESGGGLVQPGGSLRLSCAASGFTFKDYAMAWARQVPGKGLEWVSGIYSDGNTYYADSVKGRFTISRDNAKNTVYLRMNSLKPEDTAVYYCATERHPQGAADFGSWGQGTQVTVSS
notes: as for B1
binding result: binds
